# According to the Human Domainome abundance scans (Beltran et al. 2025):
# ± gives the uncertainty stated by the source.
# B1: WW domain-containing transcription regulator protein 1, residues 116 to 162; numbered along this chain, Q9GZV5 (parent)
# chain: QSYDVTDELPLPPGWEMTFTATGQRYFLNHIEKITTWQDPRKAMNQP
# Variants of: B1
# Test: abundance fitness (aPCA) (normalised: wild type 0, dead -1); higher = more abundant; growth selection in yeast, the domain comes from the species named
# Conditions: Homo sapiens
row,Variant,abundance fitness
1,W15V,-0.69 ± 0.054
2,T35C,-0.236 ± 0.045
3,P10A,-0.088 ± 0.027
4,E32P,-0.805 ± 0.045
5,M44W,-0.15 ± 0.046
6,W15D,-0.532 ± 0.054
7,T36R,-0.858 ± 0.058
8,T35S,-0.072 ± 0.028
9,D39Q,-0.911 ± 0.16
10,Q38T,-0.095 ± 0.031
11,Q1T,-0.492 ± 0.18
12,Q46R,-0.156 ± 0.035
13,R25W,-0.64 ± 0.031
14,D7H,0.053 ± 0.055
15,F27G,-0.613 ± 0.048
16,Q24N,-0.164 ± 0.026
17,E32I,-0.055 ± 0.04
18,G23H,-0.476 ± 0.064
19,N29K,-0.826 ± 0.052
20,G23M,-0.875 ± 0.079
21,Q46H,-0.394 ± 0.063

row,Variant,abundance fitness
1,N29W,-0.965 ± 0.093
2,F27L,-0.841 ± 0.046
3,L28V,0.035 ± 0.042
4,P12T,-0.758 ± 0.076
5,D7R,-0.166 ± 0.041
6,T18Y,-0.086 ± 0.051
7,R41Y,-1.11 ± 0.43
8,T6L,-0.104 ± 0.029
9,P10G,-0.12 ± 0.028
10,T36E,-0.722 ± 0.031
11,T22Y,-0.422 ± 0.061
12,D7Y,-0.268 ± 0.049
13,M17K,-0.214 ± 0.047
14,F27I,-0.935 ± 0.066
15,F19Y,-0.082 ± 0.042
16,P47T,-0.148 ± 0.043
17,W37H,-0.402 ± 0.04
18,T18A,0.023 ± 0.037
19,T35N,-0.57 ± 0.039
20,T20G,-0.381 ± 0.03
21,D7T,-0.065 ± 0.056

row,Variant,abundance fitness
1,P12A,-0.467 ± 0.041
2,Y26R,-0.487 ± 0.044
3,L9P,-0.001 ± 0.047
4,Y26I,-0.409 ± 0.074
5,E8A,-0.027 ± 0.026
6,M17F,-0.172 ± 0.036
7,E8P,-0.09 ± 0.039
8,A43I,-0.073 ± 0.067
9,E32H,-0.05 ± 0.048
10,P13I,-0.18 ± 0.05
11,Q24L,-0.364 ± 0.041
12,Q38N,-0.104 ± 0.032
13,Q24G,-0.286 ± 0.041
14,K42V,-0.166 ± 0.045
15,A43L,-0.008 ± 0.037
16,R25N,-0.448 ± 0.074
17,G23R,-0.369 ± 0.029
18,Y26H,-0.387 ± 0.071
19,K42I,-0.038 ± 0.036
20,T22K,-0.087 ± 0.034
21,T22D,0.104 ± 0.032

row,Variant,abundance fitness
1,R41P,-0.785 ± 0.068
2,A21E,-0.002 ± 0.036
3,P13K,-0.084 ± 0.04
4,E16S,-0.081 ± 0.027
5,S2P,-0.45 ± 0.066
6,P10F,-0.342 ± 0.038
7,D4F,-0.152 ± 0.062
8,T20C,-0.356 ± 0.029
9,K33V,-0.905 ± 0.03
10,Y26W,-0.587 ± 0.054
11,G14W,-0.491 ± 0.036
12,G23I,-0.917 ± 0.12
13,Q1V,-0.45 ± 0.09
14,E32W,0.094 ± 0.028
15,D4H,-0.207 ± 0.061
16,I34G,-0.634 ± 0.029
17,I34E,-0.265 ± 0.028
18,L28P,-0.697 ± 0.099
19,Q24A,-0.124 ± 0.045
20,S2L,-0.093 ± 0.04
